Measurements: patent US9359599

Tests used:
[1] = tested on: CCR5A R18 TALEN canonical ELD/KKR (Artificial (Xanthomonas TALE-FokI)); assay: cell_activity
[2] = tested on: CCR5A R18 TALEN Q3 ELD/KKR (Artificial (Xanthomonas TALE-FokI)); assay: cell_activity
[3] = tested on: CCR5A R18 TALEN Q7 ELD/KKR (Artificial (Xanthomonas TALE-FokI)); assay: cell_activity
[4] = tested on: CCR5A R18 TALEN 28-aa EL/KK (Artificial (Xanthomonas TALE-FokI)); assay: cleavage_in_vitro; settings: as pair, 16 nM
[5] = tested on: CCR5A R18 TALEN N1 EL/KK (Artificial (Xanthomonas TALE-FokI)); assay: cleavage_in_vitro; settings: as pair, 16 nM
[6] = tested on: CCR5A R18 TALEN N2 EL/KK (Artificial (Xanthomonas TALE-FokI)); assay: cleavage_in_vitro; settings: as pair, 16 nM
[7] = tested on: CCR5A R18 TALEN N3 EL/KK (Artificial (Xanthomonas TALE-FokI)); assay: cleavage_in_vitro; settings: as pair, 16 nM
[8] = tested on: CCR5A R18 TALEN Q3 EL/KK (Artificial (Xanthomonas TALE-FokI)); assay: cleavage_in_vitro; settings: as pair, 16 nM
[9] = tested on: CCR5A R18 TALEN Q7 EL/KK (Artificial (Xanthomonas TALE-FokI)); assay: cleavage_in_vitro; settings: as pair, 16 nM
[10] = tested on: CCR5A R18 TALEN canonical EL/KK (Artificial (Xanthomonas TALE-FokI)); assay: cleavage_in_vitro; settings: as L18+R18 pair, 16 nM
[11] = tested on: CCR5B R10 TALEN (Artificial (Xanthomonas TALE-FokI)); assay: cleavage_in_vitro; settings: as L10+R10 pair
[12] = tested on: CCR5B R13 TALEN (Artificial (Xanthomonas TALE-FokI)); assay: cleavage_in_vitro; settings: as L13+R13 pair
[13] = tested on: CCR5B R16 TALEN (Artificial (Xanthomonas TALE-FokI)); assay: cleavage_in_vitro; settings: as L16+R16 pair
[14] = tested on: CCR5B L13 TALEN (Artificial (Xanthomonas TALE-FokI)); assay: cleavage_in_vitro; settings: as L13+R13 pair
[15] = tested on: CCR5B L16 TALEN (Artificial (Xanthomonas TALE-FokI)); assay: cleavage_in_vitro; settings: as L16+R16 pair
[16] = tested on: ATM L18 TALEN N1 EL/KK (Artificial (Xanthomonas TALE-FokI)); assay: cleavage_in_vitro; settings: as pair, 12 nM
[17] = tested on: ATM L18 TALEN N2 EL/KK (Artificial (Xanthomonas TALE-FokI)); assay: cleavage_in_vitro; settings: as pair, 12 nM
[18] = tested on: ATM L18 TALEN N3 EL/KK (Artificial (Xanthomonas TALE-FokI)); assay: cleavage_in_vitro; settings: as pair, 12 nM
[19] = tested on: ATM L18 TALEN Q3 EL/KK (Artificial (Xanthomonas TALE-FokI)); assay: cleavage_in_vitro; settings: as pair, 12 nM
[20] = tested on: ATM L18 TALEN Q7 EL/KK (Artificial (Xanthomonas TALE-FokI)); assay: cleavage_in_vitro; settings: as pair, 12 nM
[21] = tested on: ATM L18 TALEN canonical EL/KK (Artificial (Xanthomonas TALE-FokI)); assay: cleavage_in_vitro; settings: as L18+R18 pair, 12 nM
[22] = tested on: CCR5B L10 TALEN (Artificial (Xanthomonas TALE-FokI)); assay: cleavage_in_vitro; settings: as L10+R10 pair
[23] = tested on: ATM R18 TALEN N1 EL/KK (Artificial (Xanthomonas TALE-FokI)); assay: cleavage_in_vitro; settings: as pair, 12 nM
[24] = tested on: ATM R18 TALEN N2 EL/KK (Artificial (Xanthomonas TALE-FokI)); assay: cleavage_in_vitro; settings: as pair, 12 nM
[25] = tested on: ATM R18 TALEN N3 EL/KK (Artificial (Xanthomonas TALE-FokI)); assay: cleavage_in_vitro; settings: as pair, 12 nM
[26] = tested on: ATM R18 TALEN Q3 EL/KK (Artificial (Xanthomonas TALE-FokI)); assay: cleavage_in_vitro; settings: as pair, 12 nM
[27] = tested on: ATM R18 TALEN Q7 EL/KK (Artificial (Xanthomonas TALE-FokI)); assay: cleavage_in_vitro; settings: as pair, 12 nM
[28] = tested on: ATM R18 TALEN canonical EL/KK (Artificial (Xanthomonas TALE-FokI)); assay: cleavage_in_vitro; settings: as pair, 12 nM

Sequence: AGCATCAATCCTGGAAGA (double strand) [OffC-16 right half-site]
- activity ([1]; pair, off-target, 28 bp spacer): 0.031 % modified

Sequence: AGGAGCAACTCTGGGAGA (double strand) [OffC-5 right half-site]
- activity ([2]; pair, off-target): 0.085 % modified
- activity ([3]; pair, off-target, no indels detected): < 0.006 % modified
- activity ([1]; pair, off-target, 14 bp spacer): 2.21 % modified

Sequence: AGTATCAATTCTGGAAGA (double strand) [CCR5A right half-site]
- activity ([2]; pair in U2OS-EGFP cells): 24.3 % modified
- activity ([3]; pair in U2OS-EGFP cells): 5.57 % modified
- activity ([1]; pair in U2OS-EGFP cells): 27.6 % modified
- activity (fold enrichment) [4]: 70.4
- activity (fold enrichment) [5]: 19
- activity (fold enrichment) [6]: 41.7
- activity (fold enrichment) [7]: 174
- activity (fold enrichment) [8]: 18.6
- activity (fold enrichment) [9]: 62.3
- activity (fold enrichment) [10]: 12.2

Sequence: CATACAGTCA (double strand) [CCR5B R10 half-site]
- activity (fold enrichment) [11]: 44

Sequence: CATACAGTCAGTA (double strand) [CCR5B R13 half-site]
- activity (fold enrichment) [12]: 113

Sequence: CATACAGTCAGTATCA (double strand) [CCR5B R16 half-site]
- activity (fold enrichment) [13]: 59.4

Sequence: CTCATCAATTCTGGGTGA (double strand) [OffC-13 right half-site]
- activity ([1]; pair, off-target, no indels): < 0.006 % modified

Sequence: GATATCCTTTCTGGAAGA (double strand) [OffC-28 right half-site]
- activity ([1]; pair, off-target, 19 bp spacer): 0.163 % modified

Sequence: GGTATCTATCCTGGAATA (double strand) [OffC-15 right half-site]
- activity ([1]; pair, off-target, 26 bp spacer): 0.23 % modified

Sequence: TCATTACACCTGC (double strand) [CCR5B L13 half-site]
- activity (fold enrichment) [14]: 113

Sequence: TCTTCATTACACCTGC (double strand) [CCR5B L16 half-site]
- activity (fold enrichment) [15]: 59.4

Sequence: TGAATTGGGATGCTGTTT (double strand) [ATM left half-site]
- activity (fold enrichment) [16]: 57.2
- activity (fold enrichment) [17]: 119
- activity (fold enrichment) [18]: 201
- activity (fold enrichment) [19]: 50.4
- activity (fold enrichment) [20]: 513
- activity (fold enrichment) [21]: 20.5

Sequence: TTACACCTGC (double strand) [CCR5B L10 half-site]
- activity (fold enrichment) [22]: 44

Sequence: TTTATTTTACTGTCTTTA (double strand) [ATM right half-site]
- activity (fold enrichment) [23]: 57.2
- activity (fold enrichment) [24]: 119
- activity (fold enrichment) [25]: 201
- activity (fold enrichment) [26]: 50.4
- activity (fold enrichment) [27]: 513
- activity (fold enrichment) [28]: 20.5
